Data reported in patent US20100021473A1 (DOMANTIS, published 2010).
Numbering of substitutions follows the chain as printed.

Legend:
[1] = molecular target: T1, CD38 and CD138 co-expressed on cells (CD38+/CD138+ double positive cells) (UniProt P28907 1-300; P18827 23-310); assay: cell-based or functional assay
T1 construct: whole, on cells; Two separate membrane proteins on the same cell, not a complex; also called RPMI8226; OPM2

[2] = molecular target: CD138 and CD56 co-expressed on cells (CD138+/CD56+ double positive cells) (UniProt P18827); assay: cell-based or functional assay
[3] = molecular target: T1, CD38 and CD138 co-expressed on cells …; assay: FACS cell binding titration on OPM2 cells (CD38+/CD138+), arithmetic mean fluorescence. The table prints no unit; the unit is taken from the x axis 'log conc in nm' (nanomolar).
Description: (§1) The determination of cell binding by FACS was carried out as follows: cells were centrifuged at 250 g for 5 minutes and the growth medium was removed. The cells were resuspended in FACS incubation buffer at 4° C. at a density of 2×10⁶ cells/ml. The cells were blocked by incubating for 15 minutes at 4° C. in FACS incubation buffer. Fifty microliters of 2× stock of primary antibody (anti-CD38 FITC, anti-CD138 FITC or mIgG1 FITC conjugated isotype control (all BD Biosciences) was added; or dAb was added to cells in FACS incubation buffer and incubated for 30-60 minutes at 4° C. The cells were then washed once in FACS incubation buffer. One hundred microliters of secondary antibody (rabbit anti-Vk) was added to cells in FACS incubation buffer and incubated 30-60 minutes at 4° C. The cells were washed once in FACS incubation buffer. Then 100 ul of 1× tertiary antibody was added to the cells in FACS incubation buffer and incubated for 30-60 mins at 4° C. (for dAbs the tertiary antibody is anti-rabbit FITC (Sigma)). The cells were washed twice in FACS incubation buffer. The cell pellet was resuspend in 200 ul FACS incubation buffer+viable cell marker (BD Viaprobe). The cells were then analyzed by flow cytometry.
Anti-CD38 and anti-CD138 affinity matured dAbs were paired to create dual specific ligands by cloning an anti-CD38 dAb and an anti-CD138 dAb into a dual expression vector. To determine if the increased affinity of the monomers was reflected in increased binding affinity of the dual specific ligand, a range of the affinity matured anti-CD38 dAbs were paired with the anti-CD138 dAb DOM12-45, a range of affinity matured anti-CD138 dAbs were paired with anti-CD38 dAbs, and a range of affinity matured anti-CD38 dAbs and affinity matured anti-CD138 dAbs were paired. All dual specific ligands were expressed in E. coli and purified using protein L agarose followed by Resource S cation exchange chromatography when required. The binding affinity of the dual specific ligands was assessed by FACS as described previously. In this study, a range of concentrations was used to allow determination of EC50.

[4] = molecular target: T2, CD138 on cells (UniProt P18827 23-310); assay: FACS dot plot (FSC-H against FL1-H) on H647 cells (CD38-/CD138+), ligand at 50 nM
T2 construct: whole, on cells; Endogenous CD138 on cell lines used in FACS; also called DOM12; syndecan-1
T2 sequence (looked up): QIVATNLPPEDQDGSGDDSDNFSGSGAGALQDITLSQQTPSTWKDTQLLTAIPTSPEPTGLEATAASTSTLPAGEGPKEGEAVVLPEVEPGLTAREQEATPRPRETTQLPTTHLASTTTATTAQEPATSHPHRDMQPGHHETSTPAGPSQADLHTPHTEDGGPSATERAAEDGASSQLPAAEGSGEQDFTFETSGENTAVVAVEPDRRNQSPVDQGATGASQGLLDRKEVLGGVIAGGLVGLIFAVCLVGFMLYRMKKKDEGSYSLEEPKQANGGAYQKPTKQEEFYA

[5] = molecular target: T1, CD38 and CD138 co-expressed on cells …; assay: FACS cell binding titration on OPM2 cells (CD38+/CD138+), arithmetic mean fluorescence against log conc in nm
[6] = molecular target: T3, CD38 immobilised on Biacore CM5 chip (UniProt P28907 43-300, limits assumed); assay: Biacore, CD38 immobilised
T3 construct: also called DOM11
Description: (§2) Anti-CD38, anti-CEA and anti-CD56 dAbs that were identified as FACS positive clones were in addition analysed by Biacore using the following procedure. The CM5 chip surface was activated by flushing 1:1 EDC/NHS (0.4M1-ethyl-3-(3-dimenthylaminopropyl)-carbodiimide in water; 0.1 M N-hydroxysuccinimide in water) at a flow rate of 5 uL/min for 10 minute contact time. CD38 was immobilised at 500 nM in Acetate buffer pH4 at 5 uL/min this was repeated until the RUs reached between 500 and 1000 (low density). CEA and CD56 were coupled in acetate buffer pH 4.5. Any excess reactive groups were deactivated by running 1M ethanolamine-HCl over the CM5 chip (again 5 uL/min for 7 mins). The affinities of the anti-CD38, anti-CEA and anti-CD56 dAbs were measured on the biacore as described above.
Affinity maturation libraries were created for the anti-CD38 dAbs DOM11-3 and DOM11-30 by error prone PCR. […] Initial screening was carried out by BIAcore (as described previously) and subsequently by FACS.

[7] = molecular target: T3, CD38 immobilised on Biacore CM5 chip; assay: SPR (Biacore), CD38 immobilised on CM5 chip
Description: as §2

[8] = molecular target: T2, CD138 on cells; assay: FACS on HUVEC cells (CD38-/CD138+)
Description: (§3) All dAbs were analysed by FACS on antigen positive and negative cell lines using the following method.
as §1

[9] = molecular target: T4, CD38 on cells (UniProt P28907 1-300); assay: FACS on RPMI cells (CD38+/138+)
T4 construct: whole, on cells; Endogenous CD38 on cell lines used in FACS or microscopy; also called DOM11; T10
Description: as §3, §1

[10] = molecular target: T2, CD138 on cells; assay: FACS on RPMI cells (CD38+/138+)
Description: as §3, §1

[11] = molecular target: T5, NCA on H647 cells (UniProt P40199 35-320, limits assumed); assay: FACS on H647 cells (CEA-/NCA+)
T5 construct: whole, on cells; Its identity is an inference
T5 sequence (looked up): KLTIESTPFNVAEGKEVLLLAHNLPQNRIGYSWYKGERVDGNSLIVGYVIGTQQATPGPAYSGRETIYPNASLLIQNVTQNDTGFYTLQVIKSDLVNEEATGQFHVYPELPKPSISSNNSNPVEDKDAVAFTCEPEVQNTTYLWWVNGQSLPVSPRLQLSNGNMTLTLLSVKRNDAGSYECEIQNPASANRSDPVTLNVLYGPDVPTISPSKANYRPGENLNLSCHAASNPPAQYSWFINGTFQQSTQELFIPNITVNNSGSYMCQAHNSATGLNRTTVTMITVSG
Description: as §3, §1

[12] = molecular target: T6, CEA immobilised on Biacore CM5 chip (UniProt P06731 35-685, limits assumed); assay: Biacore, CEA immobilised
T6 construct: also called DOM13
T6 sequence (looked up): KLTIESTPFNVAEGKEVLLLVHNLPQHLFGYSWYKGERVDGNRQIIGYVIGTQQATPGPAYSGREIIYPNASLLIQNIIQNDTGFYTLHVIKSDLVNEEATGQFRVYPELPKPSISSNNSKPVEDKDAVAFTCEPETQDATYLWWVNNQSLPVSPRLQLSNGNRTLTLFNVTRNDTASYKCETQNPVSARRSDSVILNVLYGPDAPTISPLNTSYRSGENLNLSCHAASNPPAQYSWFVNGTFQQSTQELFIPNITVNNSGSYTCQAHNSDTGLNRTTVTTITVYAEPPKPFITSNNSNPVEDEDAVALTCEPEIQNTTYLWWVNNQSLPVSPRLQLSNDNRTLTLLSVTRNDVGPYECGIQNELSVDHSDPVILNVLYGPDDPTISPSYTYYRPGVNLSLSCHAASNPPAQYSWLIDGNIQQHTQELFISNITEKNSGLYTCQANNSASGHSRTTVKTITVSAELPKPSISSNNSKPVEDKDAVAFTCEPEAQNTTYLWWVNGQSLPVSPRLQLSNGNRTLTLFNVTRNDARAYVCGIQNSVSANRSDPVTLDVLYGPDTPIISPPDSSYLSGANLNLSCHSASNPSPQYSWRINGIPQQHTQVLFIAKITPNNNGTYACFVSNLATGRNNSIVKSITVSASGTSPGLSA
Description: as §2

B1: DOM11-30/DOM12-45 anti-CD38/anti-CD138 dual specific ligand (bispecific antibody, part only; not given: linker between dAbs, not shown: small tags and cut ends)
chain, part: DIQITQSPSSLSASVGDRITITCRASQKIENDLAWYQQKPGKAPKLLIYYTSILQSGVPSRFSGSGSGTDFTLTISSLQPEDFATYYCQQRRYVPATFGQGTKVEIKRDIQMTQSPSSLSASVGDRVTITCRASQDIGDRLRWYQQKPGKAPKLLIYHGSRLESGVPSRFSGSRSGTDFTLTISSLQPEDFATYYCQQQWFRPYTFGQGTKVEIKR
- % internalized [1]: 8%

B2: DOM14-23/DOM12-45 anti-CD138/anti-CD56 dual specific ligand (bispecific antibody, part only; not given: linker between dAbs, not shown: small tags and cut ends)
chain, part: DIQMTQSPSSLSASVGDRVTITCRASQDIFPFLNWYQQKPGKAPELLIYRASILHSGVPSRFSGSGSGTDFTLTISSLQPEDFATYYCQQIARSPRTFGQGTKVEIKRDIQMTQSPSSLSASVGDRVTITCRASQDIGDRLRWYQQKPGKAPKLLIYHGSRLESGVPSRFSGSRSGTDFTLTISSLQPEDFATYYCQQQWFRPYTFGQGTKVEIKR
- % internalized [2]: 43%

B3: DOM11-3/DOM12-45 anti-CD38/anti-CD138 dual specific ligand (bispecific antibody)
chain: DIQMTQSPSSLSASVGDRVTITCRASQNIDSRLSWYQQKPGKAPKLLIYRTSVLQSGVPSRFSGSGSGTDFTLTISSLQPEDFATYYCQQWDMFPLTFGQGTKVEIKRSSGGGGSGGGGSGGGGSGGGGSGGGGSTDIQMTQSPSSLSASVGDRVTITCRASQDIGDRLRWYQQKPGKAPKLLIYHGSRLESGVPSRFSGSRSGTDFTLTISSLQPEDFATYYCQQQWFRPYTFGQGTKVEIKR
notes: In-line fusion of two dAbs, expressed in E. coli; also called DOM11-3/12-45
- EC50 [3]: 44.4 nM
- percent of cells right of the FL1-H gate line [4]: 3%

B4: DOM11-3-15/DOM12-45-1 (bispecific antibody)
chain: B3 chain with T51A, S65T, T97S, K175N, S201N
- EC50 (read off the curve) [5]: 100 nM

B5: DOM11-30 (other)
chain: DIQITQSPSSLSASVGDRITITCRASQKIENDLAWYQQKPGKAPKLLIYYTSILQSGVPSRFSGSGSGTDFTLTISSLQPEDFATYYCQQRRYVPATFGQGTKVEIKR
notes: Anti-CD38 dAb monomer
- Kd [6]: 190 to 230 nM
- Kd [7]: 150 nM

B6: DOM11-7 (other)
chain: DIQMTQSPSSLSASVGDRVTITCRASQYINTLLSWYQQKPGKAPKLLIYAQSRLQSGVPSRFSGSGSGTDFTLTISSLQPEDFATYYCQQFAFRPYTFGQGTKVEIKR
notes: Anti-CD38 dAb monomer
- binding result [8]: no binding
- binding result [9]: binds

B7: DOM12-17 (other)
chain: B5 chain with I4M, I19V, K28S, E30G, D32N, A34L, I53R, Y93T, V94H, A96H
notes: Anti-CD138 dAb monomer
- binding result [10]: binds

B8: DOM12-26 (other)
chain: DIQMTQSPSSLSASVGDRVTITCRASQDIFTKLRWYQQKPGKAPRLLIYAGSRLQSGVPSRFSGSGSGTDFTLTISSLQPEDFATYYCQQVKQKPWTFGQGTKVEIKR
notes: Anti-CD138 dAb monomer
- binding result [10]: binds

B9: DOM13-25 (other)
chain: B6 chain with Y28S, N30G, T31P, L32W, A50Q, Q51V, F91N, A92L, F93A, R94P
notes: Anti-CEA dAb monomer
- binding result [11]: no binding
- Kd [12]: 100 to 200 nM

B10: DOM13-59 (other)
chain: DIQMTQSPSSLSASVGDRVTITCRASQKIMTHLRWYQQKPGKAPKLLIYGGSHLQSGVPSRFSGSGSGTDFTLTISSLQPEDFATYYCQQTWVSPMTFGQGTKVEIRR
notes: Anti-CEA dAb monomer
- binding result [11]: no binding
- Kd [12]: 400 to 800 nM

B11: DOM13-74 (other)
chain: DIQMTQSPSSLSASVGDRVTITCRASQPIKMMLSWYQQKPGKAPKLLIYNNSTLQSGVPSRFSGSGSGTDFTLTISSLQPEDFATYYCQQYRRWPYTFSQGTKVEIKR
notes: Anti-CEA dAb monomer
- binding result [11]: no binding
- Kd [12]: 100 to 200 nM
